Measurements published in patent US20230265151A1, “GIP/GLP1 CO-AGONIST COMPOUNDS” (priority 2020, published 2023).

T1: human GIP receptor (human, UniProt P48546 22-466)
T1 construct: whole, on cells; also called hGIPR; human glucose-dependent insulinotropic polypeptide receptor
T1 sequence (looked up): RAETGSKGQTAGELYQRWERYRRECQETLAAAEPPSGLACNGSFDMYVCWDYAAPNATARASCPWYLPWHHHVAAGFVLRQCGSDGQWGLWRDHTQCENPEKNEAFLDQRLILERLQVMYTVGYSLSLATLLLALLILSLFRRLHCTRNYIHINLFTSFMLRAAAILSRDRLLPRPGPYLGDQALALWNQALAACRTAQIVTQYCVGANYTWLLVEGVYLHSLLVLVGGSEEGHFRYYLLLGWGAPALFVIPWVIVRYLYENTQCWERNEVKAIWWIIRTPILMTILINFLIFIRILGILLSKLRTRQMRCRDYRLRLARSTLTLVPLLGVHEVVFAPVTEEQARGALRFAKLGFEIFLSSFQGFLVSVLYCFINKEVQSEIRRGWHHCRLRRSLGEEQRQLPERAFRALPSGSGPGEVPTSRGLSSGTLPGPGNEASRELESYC


How the values were obtained:
human glucagon receptor = biological target: T2, human glucagon receptor (human, UniProt P47871 26-477); experiment: SPA competition vs [125I]-Gcg, hGcgR membranes
T2 construct: whole, on cells; also called hGCGR; hGcgR

human GLP-1 receptor = biological target: T3, human GLP-1 receptor (human, UniProt P43220 24-463); experiment: SPA competition vs [125I]-GLP-1, hGLP-1R membranes
T3 construct: whole, on cells; also called hGLP-1R; human glucagon-like peptide-1 receptor
Summary of the method: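 Competition binding in 25 mM HEPES pH 7.4, 2.5 mM CaCl₂, 1 mM MgCl₂, 0.1% bacitracin, 0.003% TWEEN-20, EDTA-free protease inhibitors. IC₅₀ from four-parameter nonlinear fit; Kᵢ given as geometric mean ± SEM, n = independent replicates on different days.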

human GIP receptor = biological target: T1, human GIP receptor; experiment: SPA competition vs [125I]-GIP, hGIPR membranes

T2 sequence (P47871 26-477): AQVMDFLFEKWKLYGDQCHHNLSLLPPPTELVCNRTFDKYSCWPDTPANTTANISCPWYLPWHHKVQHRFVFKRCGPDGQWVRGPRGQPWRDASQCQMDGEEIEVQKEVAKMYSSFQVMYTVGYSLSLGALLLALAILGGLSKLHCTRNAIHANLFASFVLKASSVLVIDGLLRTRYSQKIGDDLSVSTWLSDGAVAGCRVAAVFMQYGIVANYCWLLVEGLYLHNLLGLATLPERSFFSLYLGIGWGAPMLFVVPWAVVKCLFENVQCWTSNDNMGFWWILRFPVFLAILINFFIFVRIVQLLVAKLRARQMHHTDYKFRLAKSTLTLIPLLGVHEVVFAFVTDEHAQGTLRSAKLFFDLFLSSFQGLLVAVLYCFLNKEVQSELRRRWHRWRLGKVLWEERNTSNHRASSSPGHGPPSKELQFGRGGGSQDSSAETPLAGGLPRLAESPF

Binder | Ki (human glucagon receptor) | Ki (human GLP-1 receptor) | Ki (human GIP receptor)
YXEGTXTSDXXIXLDXQAQXXFIKXLIKGGPSSGAPPPS (Aib2, αMeF(2F)6, 4Pal10, Aib11, αMeL13, Orn16, Aib20, Orn21, K24(Z1), αMeY25, K28(Z1), C-term NH2; Z1=AEEA-Ahx-(γ-Glu)-(10-(4-carboxyphenoxy)decanoyl)) | 71.8 nM | 0.123 nM | 0.013 nM
YXEGTXTSDXXIXLDXQAQXXFIKXLIKGGPSSGAPPPS (Aib2, αMeF(2F)6, 4Pal10, Aib11, αMeL13, Orn16, Aib20, Orn21, K24(Z1), αMeY25, K28(Z1), C-term NH2; Z1=PEG3-(γ-Glu)-(10-(4-carboxyphenoxy)decanoyl)) | 87.5 nM | 0.125 nM | 0.0102 nM
YXEGTXTSDXXIXLDXQAQXXFIKXLIKGGPSSGAPPPS (Aib2, αMeF(2F)6, 4Pal10, Aib11, αMeL13, Orn16, Aib20, Orn21, K24(Z1), αMeY25, K28(Z1), C-term NH2; Z1=Ahx-AEEA-(γ-Glu)-CO-(CH2)12-CO2 (so in the source)) | 258 nM | 0.234 nM | 0.0239 nM
YXEGTXTSDXXIXLDXQAQXXFIKXLIKGGPSSGAPPPS (Aib2, αMeF(2F)6, 4Pal10, Aib11, αMeL13, Orn16, Aib20, Orn21, K24(Z1), αMeY25, K28(Z1), C-term NH2; Z1=PEG4-(γ-Glu)-(10-(4-carboxyphenoxy)decanoyl)) | 101 nM | 0.14 nM | 0.01 nM
YXEGTXTSDXXIXLDXQAQXXFIKXLIKGGPSSGAPPPS (Aib2, αMeF(2F)6, 4Pal10, Aib11, αMeL13, Orn16, Aib20, Orn21, K24(Z1), αMeY25, K28(Z1), C-term NH2; Z1=AEEA3-(γ-Glu)-(10-(4-carboxyphenoxy)decanoyl)) | 268 nM | 0.143 nM | 0.0279 nM
YXEGTXTSDXXIXLDXQAQXXFIKXLIKGGPSSGAPPPS (Aib2, αMeF(2F)6, 4Pal10, Aib11, αMeL13, Orn16, Aib20, Orn21, K24(Z1), αMeY25, K28(Z1), C-term NH2; Z1=AEEA3-(γ-Glu)-CO-(CH2)12-CO2H) | 605 nM | 0.226 nM | 0.0351 nM
YXEGTXTSDXXIXLDXQAQXXFIKXLIKGGPSSGAPPPS (Aib2, αMeF(2F)6, 4Pal10, Aib11, αMeL13, Orn16, Aib20, Orn21, K24(Z1), αMeY25, K28(Z1), C-term NH2; Z1=AEEA2-(γ-Glu)2-(10-(4-carboxyphenoxy)decanoyl)) | 139 nM | 0.189 nM | 0.0294 nM
YXEGTXTSDXXIXLDXQAQXXFIKXLIKGGPSSGAPPPS (Aib2, αMeF(2F)6, 4Pal10, Aib11, αMeL13, Orn16, Aib20, Orn21, K24(Z1), αMeY25, K28(Z1), C-term NH2; Z1=PEG3-(γ-Glu)-CO-(CH2)12-CO2H) | 170 nM | 0.266 nM | 0.0232 nM
YXEGTXTSDXXIXLDXQAQXXFIKXLIKGGPSSGAPPPS (Aib2, αMeF(2F)6, 4Pal10, Aib11, αMeL13, Orn16, Aib20, Orn21, K24(Z1), αMeY25, K28(Z1), C-term NH2; Z1=AEEA-(γ-Glu)-(10-(4-carboxyphenoxy)decanoyl)) | 54.5 nM | 0.143 nM | 0.0183 nM
YXEGTXTSDXXIXLDXKAQXEFIXXLIKGGPSSGAPPPS (Aib2, αMeF(2F)6, 4Pal10, Aib11, αMeL13, Orn16, K17(Z1), Aib20, D-Glu24, αMeY25, K28(Z1), C-term NH2; Z1=AEEA-Aoc-CO-(CH2)12-CO2H) | 304 nM | 1.29 nM | 0.0464 nM
YXEGTXTSDXXIXLDXQAQXXFIKXLIKGGPSSGAPPPS (Aib2, αMeF(2F)6, 4Pal10, Aib11, αMeL13, Orn16, Aib20, Orn21, K24(Z1), αMeY25, K28(Z1), C-term NH2; Z1=AEEA2-(γ-Glu)2-CO-(CH2)12-CO2H) | 382 nM | 0.343 nM | 0.0427 nM
YXEGTXTSDXXIXLDXQAQXXFIKXLIKGGPSSGAPPPS (Aib2, αMeF(2F)6, 4Pal10, Aib11, αMeL13, Orn16, Aib20, Orn21, K24(Z1), αMeY25, K28(Z1), C-term NH2; Z1=PEG4-(γ-Glu)-CO-(CH2)12-CO2H) | 351 nM | 0.252 nM | 0.0419 nM
YXEGTXTSDXXIXLDXQAQXXFIKXLIKGGPSSGAPPPS (Aib2, αMeF(2F)6, 4Pal10, Aib11, αMeL13, Orn16, Aib20, Orn21, K24(Z1), αMeY25, K28(Z1), C-term NH2; Z1=PEG5-(γ-Glu)-(10-(4-carboxyphenoxy)decanoyl)) | 144 nM | 0.0847 nM | 0.0387 nM
YXEGTXTSDXXIXLDXQAQXEFIKXLIKGGPSSGAPPPS (Aib2, αMeF(2F)6, 4Pal10, Aib11, αMeL13, Orn16, Aib20, K24(Z1), αMeY25, K28(Z1), C-term NH2; Z1=AEEA3-(γ-Glu)-(10-(4-carboxyphenoxy)decanoyl)) | 753 nM | 0.352 nM | 0.0261 nM
